Data on 1 molecule can be found in patent US6991794B1, “Progenitor cell preservation factors and methods for and products of their use” (ImClone Systems Incorporated, priority 1997, dated 2006).

The test system of the data set is Flt3-expressing 3T3 cells. In words: Flt3 3T3 assay during purification of Pv-FRIL. The conditions noted are these: 80,000-fold purification; IL1-α or PHA-LCM as co-factor. Type of data set: cell-based. The protocol:
To create factor-dependence for receptor-transfected 3T3 cells, growth conditions were compromised to permit only ligands to rescue cells from death. To do this, 3T3 cell lines were assayed in 96 well plates (Becton Dickinson Labware, Lincoln Park, N.J.) containing 3,000 cells in 100 μL of serum-free medium consisting of 10% AIMV (Life Technologies) and 90% DMEM. In each experiment, samples were serially diluted two-fold across rows starting at a 1:10 dilution. Viable cells were quantitated after 3-5 days by XTT (2,3-bis[Methoxy-4-nitro-5sulfophenyl]-2H-tetrazolium-5 carboxanilide inner salt) (Sigma, St. Louis, Mo.) (Roehm et al., supra). Relative activity (units/ml) and specific activity (units/mg) are defined as the reciprocal dilution at which half-maximal stimulation of cells was detected.
Each batch of PHA-LCM was generated in serum-free medium with cells from individual normal donors. To start purification, the PHA-LCM with Flt3 3T3 activity was pooled in 30 liter lots with approximately 10^7 Flt3 3T3 units. Twenty-five liters of PHA-LCM was diafiltered into 50 mM Tris-HCl, pH 7.6, 50 mM NaCl and then concentrated to 2-2.5 liters by tangential flow ultrafiltration on a 10 kDa molecular weight cutoff membrane (Pellicon, Millipore, Bedford, Mass.). A Blue-sepharose FF (Pharmacia Biotech) column (10 cm×15 cm) was equilibrated with 50 mM Tris-HCl, pH 7.4,50 mM NaCl. […]

B1: Pv-FRIL: FRIL family mannose-binding lectin from Phaseolus vulgaris (red kidney bean), SEQ ID NO: 6 (protein)
chain: AQSLSFNFTKFDLDQKDLIFQGDATSTNNVLQLTKLDSGGNPVGASVGRVLFSAPFHLWENSMAVSSFETNLTIQISTPHPYYAADGFAFFLAPHDTVIPPNSWGKFLGLYSNVFRNSPTSENQSFGDVNTDSRVVAVEFDTFPNANIDPNYRHIGIDVNSIKSKETARWEWQNGKTATARISYNSASKKSTVTTFYPGMEVVALSHDVDLHAELPEWVRVGLSASTGEEKQKNTIISWSFTSSLKNNEVKEPKEDMYIANVVRSYTWINDVLSYISNKMYDALNNNHKYVRCSTCMLFMKKK
Take B1: the “specific activity of purified fraction” value is 244,500 units/mg.
